The chains are these.
B1: p3Z-42 Human Glutaredoxin fusion (designed binder)
chain: MGAGTAQEFVNCKIQPGKVVVFIKPTCPYCRRAQEILSQLPIKQGLLEFVDITATNHTNEIQDYLQQLTGARTVPRVFIGKDCIGGCSDLVSLQQSGELLTRLKQIGALQGSGSGGMHNNRLQLSRLERVYQSEQAEKLLLAGVMLRDPARFDLRGSLTHGRDVEIDTNVIIEGNVSLGNRVKIGTGCVIKNSAIGDDCEISPYTVVEDAVLAAACTIGPFARLRPGAVLLEGAHVGNFVEMKKAVLGKGSKAGHLTYLGDAAIGDNVNIGAGTITCNYDGANKFTTIIGDDVFVGSDTQLVAPVSVGKGATIAAGTTVTRNVGANALAISRVPQTQKEGWRRPVKKK
B2: p6_9H_KDKCKXX (designed binder)
chain: MGFQGPLGSHMTISPKEKEKIAIHEAGHDLMGLVSDDDDKVHKISIIPRGMALGVTQQLPIEDKHIYDKKDLYNKILVLLGGRAAEEVFFGKDGITTGAENDLQRATDLAYRMVSMWGMSDKVGPIAIRRVANPFLGGMTTAVDTSPDLLREIDEEVKRIITEQYEKAKAIVEEYKLPLKFVVAALLHSETILCSLFAEVFKTFGIELKDKCK
notes: p6_9H with 33 C-terminal residues (including 6xHis) removed
B3: p6_9 (designed binder, not shown: small tags and cut ends)
chain: MGFQGPLGSHMTISPKEKEKIAIHEAGHDLMGLVSDDDDKVHKISIIPRGMALGVTQQLPIEDKHIYDKKDLYNKILVLLGGRAAEEVFFGKDGITTGAENDLQRATDLAYRMVSMWGMSDKVGPIAIRRVANPFLGGMTTAVDTSPDLLREIDEEVKRIITEQYEKAKAIVEEYKLPLKFVVAALLESETILCSLFAEVFKTFGIELKDKCKKEELFDKDRKSEENKELKSEEVKEEVV
notes: Alpha helical hexamer (C6), layer group P 6; Carries A29D from gene synthesis; also called Original Design p6_9 (Control); precursor to p6_9H
B4: p6_9 L193T, A198V, S189K, cut 6xHis (designed binder)
chain: MGFQGPLGSHMTISPKEKEKIAIHEAGHDLMGLVSDDDDKVHKISIIPRGMALGVTQQLPIEDKHIYDKKDLYNKILVLLGGRAAEEVFFGKDGITTGAENDLQRATDLAYRMVSMWGMSDKVGPIAIRRVANPFLGGMTTAVDTSPDLLREIDEEVKRIITEQYEKAKAIVEEYKLPLKFVVAALLEKETITCSLFVEVFKTFGIELKDKCKKEELFDKDRKSEENKELKSEEVKEEVV
B5: p6_9 L193T (designed binder, not shown: small tags and cut ends)
chain: MGFQGPLGSHMTISPKEKEKIAIHEAGHDLMGLVSDDDDKVHKISIIPRGMALGVTQQLPIEDKHIYDKKDLYNKILVLLGGRAAEEVFFGKDGITTGAENDLQRATDLAYRMVSMWGMSDKVGPIAIRRVANPFLGGMTTAVDTSPDLLREIDEEVKRIITEQYEKAKAIVEEYKLPLKFVVAALLESETITCSLFAEVFKTFGIELKDKCKKEELFDKDRKSEENKELKSEEVKEEVV
B6: p6_9 L193T, A198V, S189K (designed binder, not shown: small tags and cut ends)
chain: MGFQGPLGSHMTISPKEKEKIAIHEAGHDLMGLVSDDDDKVHKISIIPRGMALGVTQQLPIEDKHIYDKKDLYNKILVLLGGRAAEEVFFGKDGITTGAENDLQRATDLAYRMVSMWGMSDKVGPIAIRRVANPFLGGMTTAVDTSPDLLREIDEEVKRIITEQYEKAKAIVEEYKLPLKFVVAALLEKETITCSLFVEVFKTFGIELKDKCKKEELFDKDRKSEENKELKSEEVKEEVV
B7: p6_9 E188H, L193T, A198V (designed binder, not shown: small tags and cut ends)
chain: MGFQGPLGSHMTISPKEKEKIAIHEAGHDLMGLVSDDDDKVHKISIIPRGMALGVTQQLPIEDKHIYDKKDLYNKILVLLGGRAAEEVFFGKDGITTGAENDLQRATDLAYRMVSMWGMSDKVGPIAIRRVANPFLGGMTTAVDTSPDLLREIDEEVKRIITEQYEKAKAIVEEYKLPLKFVVAALLHSETITCSLFVEVFKTFGIELKDKCKKEELFDKDRKSEENKELKSEEVKEEVV
notes: p6_9H (which already carries E188H) with L193T and A198V
B8: p6_9 E188H, D29A (designed binder, not shown: small tags and cut ends)
chain: MGFQGPLGSHMTISPKEKEKIAIHEAGHALMGLVSDDDDKVHKISIIPRGMALGVTQQLPIEDKHIYDKKDLYNKILVLLGGRAAEEVFFGKDGITTGAENDLQRATDLAYRMVSMWGMSDKVGPIAIRRVANPFLGGMTTAVDTSPDLLREIDEEVKRIITEQYEKAKAIVEEYKLPLKFVVAALLHSETILCSLFAEVFKTFGIELKDKCKKEELFDKDRKSEENKELKSEEVKEEVV
notes: p6_9H with the gene-synthesis mutation A29D reverted
B9: p6_9 A184S (designed binder, not shown: small tags and cut ends)
chain: MGFQGPLGSHMTISPKEKEKIAIHEAGHDLMGLVSDDDDKVHKISIIPRGMALGVTQQLPIEDKHIYDKKDLYNKILVLLGGRAAEEVFFGKDGITTGAENDLQRATDLAYRMVSMWGMSDKVGPIAIRRVANPFLGGMTTAVDTSPDLLREIDEEVKRIITEQYEKAKAIVEEYKLPLKFVVSALLESETILCSLFAEVFKTFGIELKDKCKKEELFDKDRKSEENKELKSEEVKEEVV
B10: p6_9 T203V (designed binder, not shown: small tags and cut ends)
chain: MGFQGPLGSHMTISPKEKEKIAIHEAGHDLMGLVSDDDDKVHKISIIPRGMALGVTQQLPIEDKHIYDKKDLYNKILVLLGGRAAEEVFFGKDGITTGAENDLQRATDLAYRMVSMWGMSDKVGPIAIRRVANPFLGGMTTAVDTSPDLLREIDEEVKRIITEQYEKAKAIVEEYKLPLKFVVAALLESETILCSLFAEVFKVFGIELKDKCKKEELFDKDRKSEENKELKSEEVKEEVV
B11: p6_9 E188H, cut 6xHis (designed binder)
chain: MGFQGPLGSHMTISPKEKEKIAIHEAGHDLMGLVSDDDDKVHKISIIPRGMALGVTQQLPIEDKHIYDKKDLYNKILVLLGGRAAEEVFFGKDGITTGAENDLQRATDLAYRMVSMWGMSDKVGPIAIRRVANPFLGGMTTAVDTSPDLLREIDEEVKRIITEQYEKAKAIVEEYKLPLKFVVAALLHSETILCSLFAEVFKTFGIELKDKCKKEELFDKDRKSEENKELKSEEVKEEVV
notes: p6_9H with the 6xHis tag removed
B12: p6_9HM (designed binder, not shown: small tags and cut ends)
chain: MGFQGPLGSHMTISPKEKEKIAIHEAGHDLMGLVSDDDDKVHKISIIPRGMALGVTQQLPIEDKHIYDKKDLYNKILVLLGGRAAEEVFFGKDGITTGAENDLQRATDLAYRMVSMWGMSDKVGPIAIRRVANPFLGGMTTAVDTSPDLLREIDEEVKRIITEQYEKAKAIVEEYKLPLKFVVAALLHSETILCSLFAEMFKTFGIELKDKCKKEELFDKDRKSEENKELKSEEVKEEVV
notes: p6_9H (which already carries E188H) with V200M; also called E188H, V200M (p6_9HM)
B13: p6_9 L193T, A198V (designed binder, not shown: small tags and cut ends)
chain: MGFQGPLGSHMTISPKEKEKIAIHEAGHDLMGLVSDDDDKVHKISIIPRGMALGVTQQLPIEDKHIYDKKDLYNKILVLLGGRAAEEVFFGKDGITTGAENDLQRATDLAYRMVSMWGMSDKVGPIAIRRVANPFLGGMTTAVDTSPDLLREIDEEVKRIITEQYEKAKAIVEEYKLPLKFVVAALLESETITCSLFVEVFKTFGIELKDKCKKEELFDKDRKSEENKELKSEEVKEEVV
B14: p6_9 L193T, S189K (designed binder, not shown: small tags and cut ends)
chain: MGFQGPLGSHMTISPKEKEKIAIHEAGHDLMGLVSDDDDKVHKISIIPRGMALGVTQQLPIEDKHIYDKKDLYNKILVLLGGRAAEEVFFGKDGITTGAENDLQRATDLAYRMVSMWGMSDKVGPIAIRRVANPFLGGMTTAVDTSPDLLREIDEEVKRIITEQYEKAKAIVEEYKLPLKFVVAALLEKETITCSLFAEVFKTFGIELKDKCKKEELFDKDRKSEENKELKSEEVKEEVV
B15: p6_9 E199L (designed binder, not shown: small tags and cut ends)
chain: MGFQGPLGSHMTISPKEKEKIAIHEAGHDLMGLVSDDDDKVHKISIIPRGMALGVTQQLPIEDKHIYDKKDLYNKILVLLGGRAAEEVFFGKDGITTGAENDLQRATDLAYRMVSMWGMSDKVGPIAIRRVANPFLGGMTTAVDTSPDLLREIDEEVKRIITEQYEKAKAIVEEYKLPLKFVVAALLESETILCSLFALVFKTFGIELKDKCKKEELFDKDRKSEENKELKSEEVKEEVV
B16: p6_9H (designed binder, not shown: small tags and cut ends)
chain: MGFQGPLGSHMTISPKEKEKIAIHEAGHDLMGLVSDDDDKVHKISIIPRGMALGVTQQLPIEDKHIYDKKDLYNKILVLLGGRAAEEVFFGKDGITTGAENDLQRATDLAYRMVSMWGMSDKVGPIAIRRVANPFLGGMTTAVDTSPDLLREIDEEVKRIITEQYEKAKAIVEEYKLPLKFVVAALLHSETILCSLFAEVFKTFGIELKDKCKKEELFDKDRKSEENKELKSEEVKEEVV
notes: Hexamer (C6), layer group P 6; also called E188H (p6_9H)
B17: p6_9 E188R (designed binder, not shown: small tags and cut ends)
chain: MGFQGPLGSHMTISPKEKEKIAIHEAGHDLMGLVSDDDDKVHKISIIPRGMALGVTQQLPIEDKHIYDKKDLYNKILVLLGGRAAEEVFFGKDGITTGAENDLQRATDLAYRMVSMWGMSDKVGPIAIRRVANPFLGGMTTAVDTSPDLLREIDEEVKRIITEQYEKAKAIVEEYKLPLKFVVAALLRSETILCSLFAEVFKTFGIELKDKCKKEELFDKDRKSEENKELKSEEVKEEVV
B18: p6_9 E188H, F218Y (designed binder, not shown: small tags and cut ends)
chain: MGFQGPLGSHMTISPKEKEKIAIHEAGHDLMGLVSDDDDKVHKISIIPRGMALGVTQQLPIEDKHIYDKKDLYNKILVLLGGRAAEEVFFGKDGITTGAENDLQRATDLAYRMVSMWGMSDKVGPIAIRRVANPFLGGMTTAVDTSPDLLREIDEEVKRIITEQYEKAKAIVEEYKLPLKFVVAALLHSETILCSLFAEVFKTFGIELKDKCKKEELYDKDRKSEENKELKSEEVKEEVV
notes: p6_9H (which already carries E188H) with F218Y

One data set deals with the molecule itself. The data set can be described thus: self-assembly of fusion trimers; negative-stain EM of E. coli pellet. As to the method: Synthetic genes of each fusion were obtained and protein was expressed in Escherichia coli cells using a standard T7 based expression vector (Table 2). The protein expression was verified by sodium dodecyl sulfate polyacrylamide gel electrophoresis (SDS-PAGE) after separation of the soluble and insoluble cell portions. Samples of observed protein in the cellular pellets were analyzed for array formation by negative-stain Transmission Electron Microscopy (TEM). […] It is worth noting that 5/7 of the remaining fusions either shared a similar sequence and unknown but potentially similar structures (2 unpublished binding proteins) or were either the same molecular weight or much larger than the p3Z-42 monomer protein (3 proteins between ˜25-35 kDa).
On the basis of these initial hits, the general properties of the proteins that crystallized, specifically molecular weight, were evaluated. 16 further fusions were identified based either on smaller molecular weight sizes (13 proteins between 9 and 13 kDa) or other important targets close to this molecular weight range (3 proteins between 14 and 17 kDa). These second screen fusions were genetically fused and checked for array formation as before. […]
Take B1: the binding result is “binds”.

The next data set deals with the molecule itself. The data set can be described thus: sizes of crystals observed in the pellet; negative-stain EM (self-assembly).
For the protein B2, the binding result is “binds”.

As to B3, the binding result is “binds”. In the case of B4, the binding result is recorded as “binds”.

For B5, the binding result is “binds”.

Turning to B6, the binding result was “binds”. In the case of B7, the binding result was “binds”. Still for that read-out and setting: in the case of B8 it was “binds”.

With B9, the binding result is listed as “binds”. Same read-out and setting: with B10 the entry was “binds”; with B11, “binds”; with B12, “binds”. Still for that read-out and setting: in the case of B13 it was “binds”; in that of B14, “binds”; in that of B15, “binds”. Same read-out and setting: with B16 the entry was “binds”; with B17, “binds”; with B18, “binds”.

(Values after patent US20160369264A1 (HOWARD HUGHES MEDICAL INSTITUTE, published 2016).)
